Molecular target: prototype SARS-CoV-2 tandem RBD homotrimer (PPP) (SARS-CoV-2, UniProt P0DTC2)
Test: cryo-EM structure
Conditions: both partners purified

B1: fragment antigen binding (Fab) of mAb CB6 (Fab, V domains shown)
VH: EVQLVESGGGLVQPGGSLRLSCAASGFTVSSNYMSWVRQAPGKGLEWVSVIYSGGSTFYADSVKGRFTISRDNSMNTLFLQMNSLRAEDTAVYYCARVLPMYGDYLDYWGQGTLVTVSS
VL: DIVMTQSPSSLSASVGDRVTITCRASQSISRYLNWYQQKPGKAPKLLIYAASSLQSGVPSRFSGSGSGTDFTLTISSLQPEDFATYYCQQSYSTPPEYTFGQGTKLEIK
  stoichiometry N: 3

From PMC10538664 (PLOS Pathogens, 2023)
